The values that follow come from paper PMC10175742.

The test concerns the target N-cadherin (UniProt P19022). The test is described as follows: confocal 3D colocalisation. The conditions noted are these: reference: nonfailing control (NFC) heart tissue; sites S637,S647,T649,S650.

For “αT-catenin (CTNNA3) (from UniProt Q9UI47) DCM heart tissue”, the “other: Pearson's correlation coefficient” value is on record as “stronger; reference 0.55 ± 0.04”.
